Results taken from PMC5148612, “Mechanism of cargo-directed Atg8 conjugation during selective autophagy” (eLife, 2016).

What was measured:
Details in all cases: both partners purified
Atg12~Atg5 conjugate [1] = biological target: T1, Atg12~Atg5 conjugate (S. cerevisiae, UniProt P38316 1-186; Q12380 1-294, conjugated to Atg5 (Atg12~Atg5 protein conjugate) | conjugated to Atg12); assay: SEC; separately purified proteins mixed in a molar ratio 1:1 for 30 min at 4°C or on ice; the resulting complex purified on Superdex S200 16/60
T1 construct: Atg12, S. cerevisiae; Atg5, S. cerevisiae; the two chains are covalently joined; source: E. coli Rosetta pLysS, co-expression of 6xHis-Atg5, Atg12, Atg7 and Atg10, purified
T1 sequence (looked up) 1: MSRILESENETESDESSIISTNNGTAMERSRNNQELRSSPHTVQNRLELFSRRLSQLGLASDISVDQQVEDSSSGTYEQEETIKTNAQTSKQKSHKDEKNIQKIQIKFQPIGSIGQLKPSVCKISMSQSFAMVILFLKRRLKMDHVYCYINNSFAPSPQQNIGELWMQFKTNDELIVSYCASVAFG
T1 sequence (looked up) 2: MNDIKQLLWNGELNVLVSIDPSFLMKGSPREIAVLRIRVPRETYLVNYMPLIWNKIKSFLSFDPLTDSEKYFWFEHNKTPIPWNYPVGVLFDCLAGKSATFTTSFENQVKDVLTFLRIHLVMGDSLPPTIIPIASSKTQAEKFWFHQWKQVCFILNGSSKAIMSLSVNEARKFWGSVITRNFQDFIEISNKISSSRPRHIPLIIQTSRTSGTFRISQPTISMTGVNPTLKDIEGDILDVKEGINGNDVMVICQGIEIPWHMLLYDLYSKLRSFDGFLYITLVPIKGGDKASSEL

[2] = biological target: T2, Atg12~Atg5 (K57E) conjugate (S. cerevisiae, UniProt P38316 1-186; Q12380 1-294, K57E, conjugated to Atg5 | conjugated to Atg12); assay: as above
T2 construct: Atg12, S. cerevisiae; Atg5, S. cerevisiae; source: E. coli Rosetta pLysS, purified
T2 sequence (looked up) 1: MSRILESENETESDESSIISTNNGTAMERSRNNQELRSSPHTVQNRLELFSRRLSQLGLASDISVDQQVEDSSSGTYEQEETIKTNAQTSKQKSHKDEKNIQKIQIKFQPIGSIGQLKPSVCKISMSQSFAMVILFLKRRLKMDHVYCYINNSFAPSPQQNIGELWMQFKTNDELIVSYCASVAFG
T2 sequence (looked up) 2: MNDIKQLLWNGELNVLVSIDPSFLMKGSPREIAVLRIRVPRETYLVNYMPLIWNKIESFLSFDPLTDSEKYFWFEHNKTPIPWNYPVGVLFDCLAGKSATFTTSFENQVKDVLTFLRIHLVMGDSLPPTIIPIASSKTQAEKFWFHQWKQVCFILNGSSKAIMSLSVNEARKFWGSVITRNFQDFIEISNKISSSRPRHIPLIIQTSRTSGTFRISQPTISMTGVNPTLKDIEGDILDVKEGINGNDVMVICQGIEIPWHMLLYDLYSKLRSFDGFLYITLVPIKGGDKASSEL

[3] = biological target: T3, Atg12~Atg5 (N84E) conjugate (S. cerevisiae, UniProt P38316 1-186; Q12380 1-294, N84E, conjugated to Atg5 | conjugated to Atg12); assay: as above
T3 construct: Atg12, S. cerevisiae; Atg5, S. cerevisiae; source: E. coli Rosetta pLysS, purified
T3 sequence (looked up) 1: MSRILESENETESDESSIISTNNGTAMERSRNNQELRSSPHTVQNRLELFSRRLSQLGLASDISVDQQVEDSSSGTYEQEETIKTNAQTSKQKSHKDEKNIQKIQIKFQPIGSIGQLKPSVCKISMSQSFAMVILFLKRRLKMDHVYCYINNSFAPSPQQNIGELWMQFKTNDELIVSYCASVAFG
T3 sequence (looked up) 2: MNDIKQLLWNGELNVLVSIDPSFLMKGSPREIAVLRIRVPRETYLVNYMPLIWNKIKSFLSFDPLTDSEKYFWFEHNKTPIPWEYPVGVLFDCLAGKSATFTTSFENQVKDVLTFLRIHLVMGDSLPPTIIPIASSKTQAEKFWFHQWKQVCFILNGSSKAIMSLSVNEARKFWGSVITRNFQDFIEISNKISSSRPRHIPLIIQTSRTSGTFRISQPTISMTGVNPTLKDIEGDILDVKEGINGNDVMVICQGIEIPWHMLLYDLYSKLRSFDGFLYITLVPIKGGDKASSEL

[4] = biological target: T4, Atg12~Atg5 (K57E,N84E) conjugate (S. cerevisiae, UniProt P38316 1-186; Q12380 1-294, K57E | N84E, conjugated to Atg5 | conjugated to Atg12); assay: as above
T4 construct: Atg12, S. cerevisiae; Atg5, S. cerevisiae; source: E. coli Rosetta pLysS, purified
T4 sequence (looked up) 1: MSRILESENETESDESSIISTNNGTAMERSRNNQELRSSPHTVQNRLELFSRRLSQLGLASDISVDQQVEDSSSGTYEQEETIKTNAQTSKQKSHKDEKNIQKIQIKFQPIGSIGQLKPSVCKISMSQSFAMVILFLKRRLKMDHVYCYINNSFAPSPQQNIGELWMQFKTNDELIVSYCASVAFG
T4 sequence (looked up) 2: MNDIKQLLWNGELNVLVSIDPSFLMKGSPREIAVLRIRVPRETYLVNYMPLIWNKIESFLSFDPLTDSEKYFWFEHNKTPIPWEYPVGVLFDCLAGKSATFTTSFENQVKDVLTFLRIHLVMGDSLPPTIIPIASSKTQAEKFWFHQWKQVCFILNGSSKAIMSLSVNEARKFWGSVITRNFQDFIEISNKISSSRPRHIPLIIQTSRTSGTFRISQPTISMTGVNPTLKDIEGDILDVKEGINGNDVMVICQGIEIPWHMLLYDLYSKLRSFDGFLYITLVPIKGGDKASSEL

Atg12~Atg5 conjugate [5] = biological target: T1, Atg12~Atg5 conjugate; assay: pull-down; GST-fused bait 5 µM and GST-free prey 5 µM with glutathione Sepharose 4B, 1 hr at 4°C; washed with 25 mM HEPES pH 7.5, 150 mM NaCl, 1 mM DTT and 0.1% TritonX100; Western blot (Figures 1A, 1C, 2A, 2C)
Atg12~Atg5-Atg16 complex = biological target: T5, Atg12~Atg5-Atg16 complex (S. cerevisiae, UniProt P38316 1-186; Q12380 1-294; Q03818 1-150, conjugated to Atg5 (Atg12~Atg5 protein conjugate) | conjugated to Atg12); assay: as above
T5 construct: Atg12, S. cerevisiae; Atg5, S. cerevisiae; Atg16, S. cerevisiae; conjugate made by co-expression with Atg7 and Atg10 (SMC131); details in Romanov et al., 2012; also called E3-like complex; source: E. coli Rosetta pLysS; Atg12~Atg5 conjugate mixed 1:1 with purified Atg16, purified by size exclusion chromatography; not shown: GST, N-terminal, cleaved; copies: + +
T5 sequence (looked up) 1: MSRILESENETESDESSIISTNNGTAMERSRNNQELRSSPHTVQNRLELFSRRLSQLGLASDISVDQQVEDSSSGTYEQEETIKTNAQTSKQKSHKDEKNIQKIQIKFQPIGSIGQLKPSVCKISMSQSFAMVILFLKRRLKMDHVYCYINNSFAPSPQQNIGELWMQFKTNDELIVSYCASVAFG
T5 sequence (looked up) 2: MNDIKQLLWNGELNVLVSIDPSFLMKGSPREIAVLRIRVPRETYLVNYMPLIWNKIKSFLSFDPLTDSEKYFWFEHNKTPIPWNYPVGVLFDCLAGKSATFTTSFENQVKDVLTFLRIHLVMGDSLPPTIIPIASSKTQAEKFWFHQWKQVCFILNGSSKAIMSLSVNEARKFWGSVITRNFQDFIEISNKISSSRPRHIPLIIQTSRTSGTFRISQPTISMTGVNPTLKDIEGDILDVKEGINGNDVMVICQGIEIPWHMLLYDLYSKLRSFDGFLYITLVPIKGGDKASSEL
T5 sequence (looked up) 3: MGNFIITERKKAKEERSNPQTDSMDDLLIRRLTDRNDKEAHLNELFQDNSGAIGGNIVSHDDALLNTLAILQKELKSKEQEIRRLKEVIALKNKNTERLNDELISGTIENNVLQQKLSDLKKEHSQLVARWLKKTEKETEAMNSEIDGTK

[6] = biological target: T6, Atg12~Atg5-Atg16-mCherry complex (S. cerevisiae, UniProt P38316 1-186; Q12380 1-294; Q03818 1-150, conjugated to Atg5 (Atg12~Atg5 protein conjugate) | conjugated to Atg12); assay: microscopy-based protein-protein interaction assay on beads; glutathione beads coated with GST baits at 20 µM, Atg12~Atg5-Atg16-mCherry 5 µM, 25 mM HEPES pH 7.5, 150 mM NaCl, 1 mM DTT, imaged at equilibrium by spinning disc microscopy (Figures 1B, 2F, 2G)
T6 construct: Atg12, S. cerevisiae; Atg5, S. cerevisiae; Atg16, S. cerevisiae; also called Cx; source: E. coli Rosetta pLysS; Atg12~Atg5 conjugate mixed 1:1 with purified Atg16-mCherry, purified by size exclusion chromatography; not shown: His6, N-terminal, cleaved; mCherry, C-terminal, kept; copies: + +
T6 sequence (looked up) 1: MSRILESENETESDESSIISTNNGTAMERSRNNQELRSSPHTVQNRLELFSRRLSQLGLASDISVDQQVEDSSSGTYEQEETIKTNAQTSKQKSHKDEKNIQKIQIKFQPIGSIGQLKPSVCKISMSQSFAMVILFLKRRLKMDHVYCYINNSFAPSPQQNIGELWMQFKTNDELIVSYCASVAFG
T6 sequence (looked up) 2: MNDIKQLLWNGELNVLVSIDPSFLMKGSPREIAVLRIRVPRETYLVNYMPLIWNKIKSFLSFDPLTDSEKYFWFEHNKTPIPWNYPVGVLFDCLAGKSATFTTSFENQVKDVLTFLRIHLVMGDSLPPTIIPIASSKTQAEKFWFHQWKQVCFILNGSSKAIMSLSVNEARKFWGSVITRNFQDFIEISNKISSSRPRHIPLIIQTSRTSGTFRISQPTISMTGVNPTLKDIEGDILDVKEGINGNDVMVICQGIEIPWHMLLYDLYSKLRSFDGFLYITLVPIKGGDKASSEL
T6 sequence (looked up) 3: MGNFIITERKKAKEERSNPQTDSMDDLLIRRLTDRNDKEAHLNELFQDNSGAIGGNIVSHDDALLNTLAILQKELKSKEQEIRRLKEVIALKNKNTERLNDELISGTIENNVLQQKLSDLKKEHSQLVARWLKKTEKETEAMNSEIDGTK

Measured: binding result

B1: Atg16-mCherry (natural protein, S. cerevisiae, UniProt Q03818 1-150, looked up)
chain: MGNFIITERKKAKEERSNPQTDSMDDLLIRRLTDRNDKEAHLNELFQDNSGAIGGNIVSHDDALLNTLAILQKELKSKEQEIRRLKEVIALKNKNTERLNDELISGTIENNVLQQKLSDLKKEHSQLVARWLKKTEKETEAMNSEIDGTK
notes: Atg16, S. cerevisiae; also called 6xHis-Atg16-mCherry; source: E. coli Rosetta pLysS, purified (Ni-NTA, TEV, Superdex 200); not shown: His6, N-terminal, cleaved; mCherry, C-terminal, kept
binds: Atg12~Atg5 conjugate [1] | [2] | [3] | [4]

B2: GST-Atg19 (natural protein, S. cerevisiae, UniProt P35193 1-415, looked up)
chain: MNNSKTNQQMNTSMGYPLTVYDECNKFQLIVPTLDANIMLWCIGQLSLLNDSNGCKHLFWQPNDKSNVRILLNNYDYGHLFKYLQCQRKCSVYIGEGTLKKYNLTISTSFDNFLDLTPSEEKESLCREDAHEDPVSPKAGSEEEISPNSTSNVVVSRECLDNFMKQLLKLEESLNKLELEQKVTNKEPNHRISGTIDIPEDRSELVNFFTELKTVKQLEDVFQRYHDYERLSQECDSKTEIASDHSKKETKIEVEPPNERSLQITMNQRDNSLYFQLFNNTNSVLAGNCKLKFTDAGDKPTTQIIDMGPHEIGIKEYKEYRYFPYALDLEAGSTIEIENQYGEVIFLGKYGSSPMINLRPPSRLSAESLQASQEPFYSFQIDTLPELDDSSIISTSISLSYDGDDNEKALTWEEL
notes: Atg19, S. cerevisiae cargo receptor; also called full length GST-Atg19; Atg19 full length; source: E. coli Rosetta pLysS, purified; not shown: GST, N-terminal, kept
binds: Atg12~Atg5 conjugate [5] | Atg12~Atg5-Atg16 complex | [6]
